Measurements: PMC10662374, “Structures of the interleukin 11 signalling complex reveal gp130 dynamics and the inhibitory mechanism of a cytokine variant” (Nature Communications, 2023)
Several values for one entry are separate records, joined by “and”; a condition that tells them apart may be missing. Equal values may be shown once. Read-outs that look alike come from different tables or passages of the source. One block for each molecule: values may come before it.

What was measured:
[1] = target: IL-11_(Δ10/PAIDY)/IL-11Rα_(D1-D3) binary complex (human) (UniProt P20809); assay: ITC; gp130 in the syringe titrated against the cytokine/IL-11Rα_(D1-D3) complex formed in the cell, 288 K, TBS pH 8.5, 1:1 interaction model, n = 3
[2] = target: IL-11_(Δ10/W147A)/IL-11Rα_(D1-D3) binary complex (human) (UniProt P20809); assay: as above
[3] = target: T1, IL-11Δ10/IL-11Rα_(D1-D3) binary complex (human, UniProt P20809 32-199; Q14626 23-319); assay: as above
T1 construct: IL-11, human, IL-11Δ10, as m1; numbers count on: the mature protein; IL-11Rα, human, D1-D3, as m8; m1 with m8; also called IL-11Rα_(D1-D3)/IL-11Δ10 binary complex; binary IL-11/IL-11Rα complex; source: formed from the purified proteins (IL-11Δ10 from E. coli, IL-11Rα_(D1-D3) from Sf21); in ITC by titrating the cytokine into IL-11Rα; not shown: His6, N-terminal, cleaved; His8, N-terminal, cleaved; …
T1 sequence 1: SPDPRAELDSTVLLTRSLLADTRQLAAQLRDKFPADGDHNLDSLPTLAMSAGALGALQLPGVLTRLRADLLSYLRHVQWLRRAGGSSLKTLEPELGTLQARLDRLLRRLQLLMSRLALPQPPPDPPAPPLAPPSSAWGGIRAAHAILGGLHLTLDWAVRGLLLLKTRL
T1 sequence 2: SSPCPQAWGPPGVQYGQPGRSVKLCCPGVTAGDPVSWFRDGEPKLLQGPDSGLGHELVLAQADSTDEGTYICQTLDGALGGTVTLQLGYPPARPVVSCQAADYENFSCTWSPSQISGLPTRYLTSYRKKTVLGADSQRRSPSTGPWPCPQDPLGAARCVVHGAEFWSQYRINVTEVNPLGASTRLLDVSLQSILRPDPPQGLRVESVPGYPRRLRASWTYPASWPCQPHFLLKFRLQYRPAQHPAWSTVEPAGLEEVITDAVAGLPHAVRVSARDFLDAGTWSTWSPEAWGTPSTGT

IL-11Ralpha D1-D3 = target: T2, IL-11Ralpha D1-D3 (Homo sapiens, UniProt Q14626); assay: ITC
T2 chain: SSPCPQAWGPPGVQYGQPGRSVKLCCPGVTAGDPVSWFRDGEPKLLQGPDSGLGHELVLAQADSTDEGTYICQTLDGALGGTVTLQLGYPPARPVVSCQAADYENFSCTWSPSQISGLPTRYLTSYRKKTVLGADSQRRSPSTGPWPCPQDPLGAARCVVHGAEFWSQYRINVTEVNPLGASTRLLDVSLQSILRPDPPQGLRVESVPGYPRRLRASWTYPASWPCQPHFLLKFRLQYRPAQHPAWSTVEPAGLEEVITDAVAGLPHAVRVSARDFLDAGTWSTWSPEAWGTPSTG

IL-11Rα_(D1-D3) = target: T3, IL-11Rα_(D1-D3) (human, UniProt Q14626 23-319, N-linked glycans (N105, N172 seen in the structures)); assay: ITC; cytokine in the syringe (10-fold above IL-11Rα), IL-11Rα_(D1-D3) in the cell at 10 μM, TBS pH 8.5, 1:1 interaction model, n = 3; details: both partners purified
T3 construct: Secreted with a honeybee-melittin signal peptide; also called C-terminally truncated form of IL-11Rα; not shown: His8, N-terminal, cleaved
T3 sequence: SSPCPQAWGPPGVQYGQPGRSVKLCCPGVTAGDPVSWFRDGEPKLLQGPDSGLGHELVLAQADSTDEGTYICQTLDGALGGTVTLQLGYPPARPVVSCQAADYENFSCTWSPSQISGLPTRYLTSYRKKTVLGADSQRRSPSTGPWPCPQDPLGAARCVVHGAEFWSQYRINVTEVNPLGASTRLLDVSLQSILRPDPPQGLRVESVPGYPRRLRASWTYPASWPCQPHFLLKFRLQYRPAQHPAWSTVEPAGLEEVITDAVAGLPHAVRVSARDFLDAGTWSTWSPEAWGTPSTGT

IL-11Rα D1-D3 = target: T4, IL-11Rα D1-D3 (human, UniProt Q14626 23-319); assay: SPR; biotinylated IL-11Δ10-avi or IL-11Δ10/Mutein-avi immobilised on a streptavidin chip (SAHC 1500M); IL-11Rα D1-D3 flowed over, nine-point two-fold dilution series from 500 nM; Biacore T200, 25 °C, TBS pH 8.5 + 0.05% Tween, 30 uL/min; 1:1 kinetic model; two replicate dilution series (run 1, run 2); details: both partners purified
T4 construct: interleukin 11 receptor subunit alpha, human, C-terminally truncated form with the structured extracellular domains D1-D3; Secreted with a honeybee-melittin signal peptide; tag removed with TEV protease; N-glycosylated; also called IL11RA; RA; not shown: His8, N-terminal, cleaved
T4 sequence: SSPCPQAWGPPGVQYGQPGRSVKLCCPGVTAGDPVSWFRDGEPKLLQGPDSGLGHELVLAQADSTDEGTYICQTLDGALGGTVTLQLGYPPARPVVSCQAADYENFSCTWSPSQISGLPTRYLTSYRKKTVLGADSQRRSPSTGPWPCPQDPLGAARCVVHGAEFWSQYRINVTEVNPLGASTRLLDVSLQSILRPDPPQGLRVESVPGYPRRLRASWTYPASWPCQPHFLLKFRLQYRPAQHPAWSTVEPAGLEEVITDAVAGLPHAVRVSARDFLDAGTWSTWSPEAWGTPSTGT

[4] = target: the molecule itself; assay: cell-based or functional assay

B1: gp130EC (receptor, human, UniProt P40189 23-619, looked up)
chain: ELLDPCGYISPESPVVQLHSNFTAVCVLKEKCMDYFHVNANYIVWKTNHFTIPKEQYTIINRTASSVTFTDIASLNIQLTCNILTFGQLEQNVYGITIISGLPPEKPKNLSCIVNEGKKMRCEWDGGRETHLETNFTLKSEWATHKFADCKAKRDTPTSCTVDYSTVYFVNIEVWVEAENALGKVTSDHINFDPVYKVKPNPPHNLSVINSEELSSILKLTWTNPSIKSVIILKYNIQYRTKDASTWSQIPPEDTASTRSSFTVQDLKPFTEYVFRIRCMKEDGKGYWSDWSEEASGITYEDRPSKAPSFWYKIDPSHTQGYRTVQLVWKTLPPFEANGKILDYEVTLTRWKSHLQNYTVNATKLTVNLTNDRYLATLTVRNLVGKSDAAVLTIPACDFQATHPVMDLKAFPKDNMLWVEWTTPRESVKKYILEWCVLSDKAPCITDWQQEDGTVHRTYLRGNLAESKCYLITVTPVYADGPGSPESIKAYLKQAPPSKGPTVRTKKVGKNEAVLEWDQLPVDVQNGFIRNYTIFYRTIIGNETAVNVDSSHTEYTLSSLTSDTLYMVRMAAYTDEGGKDGPEFTFTTPKFAQGEIE
modifications: N-linked glycans (N21, N61, N135 seen in the structures)
notes: Secreted with a honeybee-melittin signal peptide; D5-D6 are not in the deposited model 8DPT; also called complete extracellular domains of gp130; D1-D6 domains of gp130; not shown: His8, N-terminal, cleaved
dH ([3]; both partners purified): -4.78 kcal/mol

B2: IL-11_(Δ10/W147A) (ligand, human)
chain: SPDPRAELDSTVLLTRSLLADTRQLAAQLRDKFPADGDHNLDSLPTLAMSAGALGALQLPGVLTRLRADLLSYLRHVQWLRRAGGSSLKTLEPELGTLQARLDRLLRRLQLLMSRLALPQPPPDPPAPPLAPPSSAAGGIRAAHAILGGLHLTLDWAVRGLLLLKTRL
notes: interleukin 11 (IL-11), human, IL-11Δ10 with W147A; numbers count on: the mature protein; also called IL-11 W147A; W147A mutant; not shown: His6, N-terminal, cleaved
Kd (IL-11Ralpha D1-D3): 10.4 nM
Kd (IL-11Rα_(D1-D3)): 10 nM

B4: IL-11_(Δ10/W147A)/IL-11Rα_(D1-D3)/gp130_(D1-D3) trimer (complex, human)
chain 1: SPDPRAELDSTVLLTRSLLADTRQLAAQLRDKFPADGDHNLDSLPTLAMSAGALGALQLPGVLTRLRADLLSYLRHVQWLRRAGGSSLKTLEPELGTLQARLDRLLRRLQLLMSRLALPQPPPDPPAPPLAPPSSAAGGIRAAHAILGGLHLTLDWAVRGLLLLKTRL
chain 2: SSPCPQAWGPPGVQYGQPGRSVKLCCPGVTAGDPVSWFRDGEPKLLQGPDSGLGHELVLAQADSTDEGTYICQTLDGALGGTVTLQLGYPPARPVVSCQAADYENFSCTWSPSQISGLPTRYLTSYRKKTVLGADSQRRSPSTGPWPCPQDPLGAARCVVHGAEFWSQYRINVTEVNPLGASTRLLDVSLQSILRPDPPQGLRVESVPGYPRRLRASWTYPASWPCQPHFLLKFRLQYRPAQHPAWSTVEPAGLEEVITDAVAGLPHAVRVSARDFLDAGTWSTWSPEAWGTPSTGT
chain 3: GELLDPCGYISPESPVVQLHSNFTAVCVLKEKCMDYFHVNANYIVWKTNHFTIPKEQYTIINRTASSVTFTDIASLNIQLTCNILTFGQLEQNVYGITIISGLPPEKPKNLSCIVNEGKKMRCEWDGGRETHLETNFTLKSEWATHKFADCKAKRDTPTSCTVDYSTVYFVNIEVWVEAENALGKVTSDHINFDPVYKVKPNPPHNLSVINSEELSSILKLTWTNPSIKSVIILKYNIQYRTKDASTWSQIPPEDTASTRSSFTVQDLKPFTEYVFRIRCMKEDGKGYWSDWSEEASGITYEDR
EC50 of STAT3 activation (pSTAT3, flow cytometry) by IL-11_(Δ10/W147A) in Ba/F3 cells stably expressing human gp130 and IL-11Rα [4]: 610 pM

More lines, now with the values ahead:

Kd [1]: 60 nM
Kd [2]: 130 nM
Kd [3]: 380 nM
dH [3]: 6.45 kcal/mol
Molecule: gp130_(D2-D3) (receptor)

Kd (IL-11Rα D1-D3): 78.5 nM and 77.1 nM and 77.8 nM
koff (IL-11Rα D1-D3): 0.0943 s⁻¹ and 0.125 s⁻¹
kon (IL-11Rα D1-D3): 1.2e+06 M⁻¹ s⁻¹ and 1.61e+06 M⁻¹ s⁻¹ and 1.41e+06 M⁻¹ s⁻¹
B3: biotinylated IL-11Δ10-avi (ligand, human)
chain: SPDPRAELDSTVLLTRSLLADTRQLAAQLRDKFPADGDHNLDSLPTLAMSAGALGALQLPGVLTRLRADLLSYLRHVQWLRRAGGSSLKTLEPELGTLQARLDRLLRRLQLLMSRLALPQPPPDPPAPPLAPPSSAWGGIRAAHAILGGLHLTLDWAVRGLLLLKTRL
modifications: biotin on the C-terminal avitag
notes: interleukin 11, human, N-terminally truncated form IL-11Δ10; numbers count on: the mature protein; also called IL11d10; not shown: His6, N-terminal, cleaved; avitag, C-terminal, kept
